What is called Kd is the constant that tells how readily two partners part at equilibrium. In general, koff refers to a measure of how fast the partners let go of each other. The term kon denotes the rate constant with which the complex forms.

Test [1] concerns the target purified full-length human HtrA1 (human, UniProt Q92743 23-480). As to the kind of experiment: cell-based or functional assay.
For test [2], the target named is purified full-length murine HtrA1 (murine, UniProt Q9R118 23-480). In words: cell-based or functional assay.
For test [3], the target named is T1, murine HtrA3 protease domain (murine, UniProt Q9D236 135-350, limits assumed).
T1 construct: domain: PD (protease domain); also called muHtrA3-PD; murine HtrA3-PD
T1 sequence (looked up): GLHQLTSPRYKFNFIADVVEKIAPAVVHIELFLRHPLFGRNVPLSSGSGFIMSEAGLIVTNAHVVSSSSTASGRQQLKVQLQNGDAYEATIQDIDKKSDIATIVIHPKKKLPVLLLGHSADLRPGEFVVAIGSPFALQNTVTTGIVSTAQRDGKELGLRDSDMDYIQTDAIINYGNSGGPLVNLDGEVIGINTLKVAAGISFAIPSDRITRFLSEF
As to the kind of experiment: ELISA, hybridoma clone. A general note: In an ELISA, binding on a coated surface is turned into a signal by an enzyme label.

Test [4] addresses T2, murine HtrA4 protease domain (murine, UniProt A2RT60 160-371, limits assumed).
T2 construct: domain: PD (protease domain); also called muHtrA4-PD; murine HtrA4-PD
T2 sequence (looked up): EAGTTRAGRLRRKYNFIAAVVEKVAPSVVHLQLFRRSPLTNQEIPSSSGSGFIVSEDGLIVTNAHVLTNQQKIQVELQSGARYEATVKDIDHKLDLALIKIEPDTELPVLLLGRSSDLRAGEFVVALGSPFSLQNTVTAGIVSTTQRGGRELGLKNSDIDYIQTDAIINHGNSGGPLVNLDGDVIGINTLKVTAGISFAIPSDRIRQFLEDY
In words: ELISA, hybridoma clone.

For test [5], the target named is T3, His-tagged human HtrA1 protease domain (human, UniProt Q92743 161-367).
T3 construct: His-tagged protease domain; also called huHtrA1-PD-His; huHtrA1-PD
T3 sequence (Q92743 other isoform, or with tags, fused parts or gaps limits assumed): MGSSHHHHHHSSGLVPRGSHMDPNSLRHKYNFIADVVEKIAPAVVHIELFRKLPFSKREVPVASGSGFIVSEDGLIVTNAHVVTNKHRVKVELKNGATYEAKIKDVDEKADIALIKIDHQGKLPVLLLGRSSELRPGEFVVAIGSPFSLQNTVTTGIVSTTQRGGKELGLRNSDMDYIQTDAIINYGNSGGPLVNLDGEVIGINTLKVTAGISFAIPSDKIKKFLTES
In words: BIACORE SPR, single cycle kinetic analysis; ligand streptavidin-captured biotin human HtrA1, analyte Fab. The source says:
(§1) To determine the binding affinity of anti-HtrA1 Fabs by single-cycle kinetics, (SPR) measurement with a BIACORE™ T100 instrument was used. Briefly, a series S sensor chip CM5 was activated with 1-ethyl-3-(3-dimethylamino-propyl)carbodiimide hydrochloride (EDC) and N-hydroxysuccinimide (NHS) reagents according to the supplier's instructions, and streptavidin (Pierce) was coupled to achieve approximately 2500 response units (RU), followed by blocking un-reacted groups with 1 M ethanolamine.
(§2) For kinetics measurements, biotinylated human or murine HtrA1-PD-His was first injected at 10 μl/min flow rate to capture approximately 150 RU at 3 different flow cells (FC), except for FC1 (which served as a reference), and then 5-fold serial dilutions of anti-HtrA1 Fab in HBS-P buffer (0.01M HEPES pH 7.4, 0.15 M NaCl, 0.005% surfactant P20) from low (0.48 nM) to high (300 nM) were injected (flow rate: 30 μl/min) one after the other in the same cycle with no regeneration between injections. The sensorgram was recorded and subject to reference and buffer subtraction before evaluating by BIACORE™ T100 Evaluation Software (version 2.0). Association rates (kₒₙ) and dissociation rates (koff) were calculated using a simple one-to-one Langmuir binding model. The equilibrium dissociation constant (KD) was calculated as the ratio koff/kₒₙ.

Test [6] has as its target T3, His-tagged human HtrA1 protease domain. In words: SPR (BIACORE T100), single-cycle kinetics; biotinylated HtrA1-PD-His on streptavidin, Fab injected.
From the text: as §1, §2
On the technique in general: Surface plasmon resonance follows binding to a sensor surface in real time, without labels.

The target in test [7] is T4, His-tagged recombinant murine HtrA1 protease domain (murine, UniProt Q9R118 156-367).
T4 construct: His-tagged protease domain; also called muHtrA1-PD-His; muHtrA1-PD
The description is as above.
From the text: as §1, §2

In test [8] the target is T4, His-tagged recombinant murine HtrA1 …. In words: BIACORE SPR, single cycle kinetic analysis; ligand streptavidin-captured biotin murine HtrA1, analyte Fab.
From the text: as §1, §2

In test [9] the target is T3, His-tagged human HtrA1 protease domain. As to the kind of experiment: SPR (BIACORE), Fab.
The target is the same in test [10]. As to the kind of experiment: BIACORE SPR analysis, Fab format. On the procedure: (§3) To determine the binding affinity of selected Fab variants for HtrA1, SPR measurement with a BIACORE™ T200 instrument was performed. Briefly, a series S sensor chip CM5 was activated with 1-EDC and NHS reagents according to the supplier's instructions, and anti-His antibody was coupled to achieve 200-300 response units (RU), then following by blocking un-reacted groups with 1 M ethanolamine. For kinetics measurements, approximately 5 nM of huHtrA1-PD-His was first injected at 10 μl/min flow rate to capture approximately 100 RU at 2 different flow cells (FC), except for FC1 (which served as a reference). Next, 5-fold serial dilutions of Fab in HBS-P buffer (0.01M HEPES pH 7.4, 0.15M NaCl, 0.005% surfactant P20) from low (0.8 nM) to high (50 nM) were injected (flow rate: 30 μl/min). The binding responses on HtrA1 were corrected by subtracting of RU from a blank flow cell. The sensorgram was recorded and subject to reference and buffer subtraction before evaluating by BIACORE® T200 Evaluation Software (version 2.0). Association rates (kₒₙ) and dissociation rates (koff) were calculated using a simple one-to-one Langmuir binding model. The equilibrium dissociation constant (KD) was calculated as the ratio of koff/kₒₙ.

Test [11] has the same target. As to the kind of experiment: cell-based or functional assay.
Test [12] shares this target. In words: SPR (BIACORE T200), huHtrA1-PD-His captured by anti-His, Fab injected. On the procedure:
These combination mutants included both a variant light chain and a variant heavy chain. BIACORE™ kinetic analysis was performed (as described below in Section C) using the combination mutants.
as §3

For test [13] the target is unchanged. In words: BIACORE SPR, single-cycle kinetics; Fab analyte over captured human HtrA1.
Test [14] has the same target. In words: cell-based or functional assay. The source holds these as a separate data set.
The target is the same in test [15]. As to the kind of experiment: BIACORE SPR, single-cycle kinetics; Fab analyte over captured human HtrA1. The source holds these as a separate data set.
For test [16] the target is unchanged. In words: SPR (BIACORE T200), huHtrA1-PD-His captured by anti-His, Fab injected. On the procedure:
as §3
The source holds these as a separate data set.

Test [17] has the same target. In words: BIACORE SPR, Fab analyte, Human HtrA1-PD (N=2).
For test [18] the target is unchanged. As to the kind of experiment: SPR (BIACORE), Fab.
From the text: (§4) To address W91 oxidation in HVR-L3, 2 variants (LC-W91Y and LC-W91L) were generated and produced as Fabs for BIACORE™ SPR binding analysis.
as §1, §2
This is another data set of the same source.

Test [19] concerns the target T4, His-tagged recombinant murine HtrA1 …. As to the kind of experiment: SPR (BIACORE), Fab.
From the text: as §4, §1, §2

The target of test [20] is T3, His-tagged human HtrA1 protease domain. In words: BIACORE T200 SPR; Fab analyte over huHtrA1-PD-His captured by anti-His antibody.

Chain of purified full-length human HtrA1 (Q92743 23-480): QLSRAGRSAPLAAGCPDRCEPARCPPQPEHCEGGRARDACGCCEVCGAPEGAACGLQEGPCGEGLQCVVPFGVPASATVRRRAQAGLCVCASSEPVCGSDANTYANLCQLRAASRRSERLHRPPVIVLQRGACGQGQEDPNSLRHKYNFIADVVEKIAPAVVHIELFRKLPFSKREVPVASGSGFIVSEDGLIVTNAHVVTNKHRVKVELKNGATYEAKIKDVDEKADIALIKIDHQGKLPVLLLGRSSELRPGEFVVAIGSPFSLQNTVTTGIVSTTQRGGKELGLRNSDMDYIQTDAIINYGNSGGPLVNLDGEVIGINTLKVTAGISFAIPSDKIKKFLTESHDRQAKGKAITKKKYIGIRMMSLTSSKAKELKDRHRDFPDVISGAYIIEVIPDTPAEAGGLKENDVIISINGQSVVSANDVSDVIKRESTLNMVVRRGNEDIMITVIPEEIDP

B1: anti-HtrA1 hybridoma antibody clone 15H6 (antibody, V domains shown)
VH: QVQLQQSGAELVRPGASVTLSCKASGYTFTDSEMHWVKQTPVHGLEWIGGVDPETDGAAYNQKFKGKATLTADKSSSTAYMELRSLTSEDSAVYYCTRGYDYDYALDYWGQGTSVTVSS
VL: QIVLSQSPAILSASPGEKVTMTCRASSSVNFIHWYQQKPGSSPKPWISATSNLASGVPPRFSGSGSGTSYSLTISRVEAEDAATYYCQQWSSNPWTFGGGTKLEIK
notes: Murine mIgG2a, from hybridoma or recombinant from 293 cells; also called m15H6
For B1, the “IC50, FRET blocking assay, recombinant antibody from 293 cells” value in [1] was about 0.7 nM. The “IC50, FRET-based blocking assay (H2-Opt cleavage)” value in test [1] was found to be 0.7 nM; in [2] it was 1.1 nM. For the same molecule, the results for the “fold improvement of IC50 against YW505.94” value in test [1] and in [2] were about 2 fold and about 5 fold, respectively. Further, the binding result in test [3] and in test [4] was “no binding” throughout.

B2: h19B12.v1 Fab (Fab, V domains shown)
VH: EVQLVESGGGLVQPGGSLRLSCAASGFTFSSYIMSWVRQAPGKGLEWVAYISNGGGTTYYSDTIKGRFTISRDNSKNTLYLQMNSLRAEDTAVYYCARQNFRSDGSSMDYWGQGTLVTVSS
VL: DIVMTQSPDSLAVSLGERATINCRASESVDSYGKSFMHWYQQKPGQPPKLLIYLASKLESGVPDRFSGSGSGTDFTLTISSLQAEDVAVYYCQQNNEDPYTFGQGTKVEIK
notes: Tested in Fab format
On to B2, for which the Kd in test [5] turned out to be 24 nM; in [6], 10.7 nM; in test [7], 7.6 nM; in test [8] it was 6.65 nM. Moreover, the koff was found to be 0.00345 s⁻¹ in test [5], 0.0016 s⁻¹ in [6], 0.00091 s⁻¹ in [7] and 0.00134 s⁻¹ in test [8]. For the same molecule, the kon in test [5] was 144000 M⁻¹ s⁻¹; in test [6], 150000 M⁻¹ s⁻¹; in [7], 120000 M⁻¹ s⁻¹; in test [8], 201000 M⁻¹ s⁻¹. Moreover, the “fold improvement of KD against m19B12” value in test [9] is about 2 fold.

B3: h15H6.v2 Fab (Fab, V domains shown)
VH: EVQLVQSGAEVKKPGASVKVSCKASGYTFTDSEMHWVRQAPGQGLEWIGGVDPETDGAAYNQKFKGRATITRDTSTSTAYLELSSLRSEDTAVYYCTRGYDYDYALDYWGQGTLVTVSS
VL: DIQMTQSPSSLSASVGDRVTITCRASSSVNFIHWYQQKPGKAPKPLISATSNLASGVPSRFSGSGSGTDFTLTISSLQPEDFATYYCQQWSSNPWTFGQGTKVEIK
notes: Tested as Fab; also called parent; parental Fab
B3: the Kd in [10] was 0.219 nM; in test [12], 0.22 nM; in test [13] it was 0.33 nM; in [15], 0.25 nM; in test [16] it was 0.22 nM; in [17], 0.4 nM. Further, the Kd in [18] worked out at 0.2 nM; in [19], 0.4 nM; in test [20], 0.219 nM. Moreover, the “IC50 FRET (H2-Opt substrate cleavage)” value in test [11] is 0.44 nM. The “IC90 FRET (H2-Opt substrate cleavage)” value in [11] worked out at 1.87 nM. The “Max inhibition (FRET H2-Opt assay)” value in test [11] was 91. The koff in test [12] came to 0.000158 s⁻¹; in [13], 0.00014 s⁻¹; in test [15], 0.00016 s⁻¹; in [16] it was 0.000158 s⁻¹; in test [17], 0.00021 s⁻¹; in test [18], 0.00012 s⁻¹. Further, in test [19], the koff was determined as 0.00015 s⁻¹. Besides, the kon in test [12] came out at 722000 M⁻¹ s⁻¹; in test [13] it was 430000 M⁻¹ s⁻¹; in [15] it was 630000 M⁻¹ s⁻¹; in [16] it was 722000 M⁻¹ s⁻¹; in [17] it was 490000 M⁻¹ s⁻¹; in test [18], 690000 M⁻¹ s⁻¹. Further, the association rate constant (kon) in test [19] is 360000 M⁻¹ s⁻¹. In test [14], the “IC50, FRET-based H2-Opt blocking assay” value was about 0.39 nM.

Values taken from patent US20170145113A1 (Genentech, published 2017).
